# Test results from the supplement of paper PMC11908140.
# B1: library; numbered along this chain (parent)
# chain: MRKPRAAVGSGHRKQAASQEGRQKHAKNNSQAKPSACDGLARQPEEVVLQASVSSYHLFRDVAEVTAFRGSLLSWYDQEKRDLPWRRRAEDEMDLDRRAYAVWVSEVMLQQTQVATVINYYTGWMQKWPTLQDLASASLEEVNQLWAGLGYYSRGRRLQEGARKVVEELGGHMPRTAETLQQLLPGVGRYTAGAIASIAFGQATGVVDGNVARVLCRVRAIGADPSSTLVSQQLWGLAQQLVDPARPGDFNQAAMELGATVCTPQRPLCSQCPVESLCRARQRVEQEQLLASGSLSGSPDVEECAPNTGQCHLCLPPSEPWDQTLGVVNFPRKASRKPPREESSATCVLEQPGALGAQILLVQRPNSGLLAGLWEFPSVTWEPSEQLQRKALLQELQRWAGPLPATHLRHLGEVVHTFSHIKLTYQVYGLALEGQTPVTTVPPGARWLTQEEFHTAAVSTAMKKVFRVYQGQQPGTCMGSKRSQVSSPCSRKKPRMGQQVLDNFFRSHISTDAHSLNSAAQ
# Variants of: B1
# Assay: 8OG:A repair function score (normalized; synonymous = 0, nonsense = -1) (normalized log-likelihood score); higher = more repair activity (WT-like)
# Conditions: with 8OG:A DNA repair reporter (GFP) in HEK-293 MUTYH KO cells
# Summary of the method: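 MUTYH knockout HEK-293 cells carrying lentiviral MUTYH cDNA NNN codon-scan libraries were grown with 10 pg/ml doxycycline and co-transfected with mCherry and a GFP reporter of 8OG:A repair. Viable mCherry+ cells were sorted at 72 h into GFP+ (repair) and GFP− bins, with three replicates per tile, and tile amplicons were sequenced. Rosace fitness scores for each tile were turned into a normalized repair function score anchored on the synonymous and nonsense distributions. Synonymous medians were set to 0 and nonsense medians to -1, and variants below 300 counts per million at the start were dropped.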
row,Variant,8OG:A repair function score
1,MRKPRAAVGSGHRKQAASQEGRQKHAKNNSQAKPSACDGLARQPEEVVLQASVSSYHLFRDVAEVTAFRGSLLSWYDQEKRDLPWRRRAEDEMDLDRRAYAVWVSEVMLQQTQVATVINYYTGWMQKWPTLQDLASASLEEVNQLWAGLGYYSRGRRLQEGARKVVEELGGHMPRTAETLQQLLPGVGRYTAGAIASIAFGQATGVVDGNVARVLCRVRAIGADPSSTLVSQQLWGLAQQLVDPARPGDFNQAAMELGATVCTPQRPLCSQCPVESLCRARQRVEQEQLLASGSLSGSPDVEECAPNTGQCHLCLPPSEPWDQTLGVVNFPRKASRKPPREESSATCVLEQPGALGAQILLVQRPNSGLLAGLWEFPSVTWEPSEQLQRKALLQELQRWDGPLPATHLRHLGEVVHTFSHIKLTYQVYGLALEGQTPVTTVPPGARWLTQEEFHTAAVSTAMKKVFRVYQGQQPGTCMGSKRSQVSSPCSRKKPRMGQQVLDNFFRSHISTDAHSLNSAAQ [A400D],-0.752
2,MRKPRAAVGSGHRKQAASQEGRQKHAKNNSQAKPSACDGLARQPEEVVLQASVSSYHLFRDVAEVTAFRGSLLSWYDQEKRDLPWRRRAEDEMDLDRRAYAVWVSEVMLQQTQVATVINYYTGWMQKWPTLQDLASASLEEVNQLWAGLGYYSRGRRLQEGARKVVEELGGHMPRTAETLQQLLPGVGRYTAGAIASIAFGQATGVVDGNVARVLCRVRAIGADPSSTLVSQQLWGLAQQLVDPARPGDFNQAAMELGATVCTPQRPLCSQCPVESLCRARQRVEQEQLLASGSLSGSPDVEECAPNTGQCHLCLPPSEPWDQTLGVVNFPRKASRKPPREESSATCVLEQPGALGAQILLVQRPNSGLLAGLWEFPSVTWEPSEQLQRKALLQELQRWPGPLPATHLRHLGEVVHTFSHIKLTYQVYGLALEGQTPVTTVPPGARWLTQEEFHTAAVSTAMKKVFRVYQGQQPGTCMGSKRSQVSSPCSRKKPRMGQQVLDNFFRSHISTDAHSLNSAAQ [A400P],-0.723
3,MRKPRAAVGSGHRKQAASQEGRQKHAKNNSQAKPSACDGLARQPEEVVLQASVSSYHLFRDVAEVTAFRGSLLSWYDQEKRDLPWRRRAEDEMDLDRRAYAVWVSEVMLQQTQVATVINYYTGWMQKWPTLQDLASASLEEVNQLWAGLGYYSRGRRLQEGARKVVEELGGHMPRTAETLQQLLPGVGRYTAGAIASIAFGQATGVVDGNVARVLCRVRAIGADPSSTLVSQQLWGLAQQLVDPARPGDFNQAAMELGATVCTPQRPLCSQCPVESLCRARQRVEQEQLLASGSLSGSPDVEECAPNTGQCHLCLPPSEPWDQTLGVVNFPRKASRKPPREESSATCVLEQPGALGAQILLVQRPNSGLLAGLWEFPSVTWEPSEQLQRKALLQELQRWCGPLPATHLRHLGEVVHTFSHIKLTYQVYGLALEGQTPVTTVPPGARWLTQEEFHTAAVSTAMKKVFRVYQGQQPGTCMGSKRSQVSSPCSRKKPRMGQQVLDNFFRSHISTDAHSLNSAAQ [A400C],-0.215
4,MRKPRAAVGSGHRKQAASQEGRQKHAKNNSQAKPSACDGLARQPEEVVLQASVSSYHLFRDVAEVTAFRGSLLSWYDQEKRDLPWRRRAEDEMDLDRRAYAVWVSEVMLQQTQVATVINYYTGWMQKWPTLQDLASASLEEVNQLWAGLGYYSRGRRLQEGARKVVEELGGHMPRTAETLQQLLPGVGRYTAGAIASIAFGQATGVVDGNVARVLCRVRAIGADPSSTLVSQQLWGLAQQLVDPARPGDFNQAAMELGATVCTPQRPLCSQCPVESLCRARQRVEQEQLLASGSLSGSPDVEECAPNTGQCHLCLPPSEPWDQTLGVVNFPRKASRKPPREESSATCVLEQPGALGAQILLVQRPNSGLLAGLWEFPSVTWEPSEQLQRKALLQELQRWHGPLPATHLRHLGEVVHTFSHIKLTYQVYGLALEGQTPVTTVPPGARWLTQEEFHTAAVSTAMKKVFRVYQGQQPGTCMGSKRSQVSSPCSRKKPRMGQQVLDNFFRSHISTDAHSLNSAAQ [A400H],0.179
5,MRKPRAAVGSGHRKQAASQEGRQKHAKNNSQAKPSACDGLARQPEEVVLQASVSSYHLFRDVAEVTAFRGSLLSWYDQEKRDLPWRRRAEDEMDLDRRAYAVWVSEVMLQQTQVATVINYYTGWMQKWPTLQDLASASLEEVNQLWAGLGYYSRGRRLQEGARKVVEELGGHMPRTAETLQQLLPGVGRYTAGAIASIAFGQATGVVDGNVARVLCRVRAIGADPSSTLVSQQLWGLAQQLVDPARPGDFNQAAMELGATVCTPQRPLCSQCPVESLCRARQRVEQEQLLASGSLSGSPDVEECAPNTGQCHLCLPPSEPWDQTLGVVNFPRKASRKPPREESSATCVLEQPGALGAQILLVQRPNSGLLAGLWEFPSVTWEPSEQLQRKALLQELQRWLGPLPATHLRHLGEVVHTFSHIKLTYQVYGLALEGQTPVTTVPPGARWLTQEEFHTAAVSTAMKKVFRVYQGQQPGTCMGSKRSQVSSPCSRKKPRMGQQVLDNFFRSHISTDAHSLNSAAQ [A400L],-0.241
6,MRKPRAAVGSGHRKQAASQEGRQKHAKNNSQAKPSACDGLARQPEEVVLQASVSSYHLFRDVAEVTAFRGSLLSWYDQEKRDLPWRRRAEDEMDLDRRAYAVWVSEVMLQQTQVATVINYYTGWMQKWPTLQDLASASLEEVNQLWAGLGYYSRGRRLQEGARKVVEELGGHMPRTAETLQQLLPGVGRYTAGAIASIAFGQATGVVDGNVARVLCRVRAIGADPSSTLVSQQLWGLAQQLVDPARPGDFNQAAMELGATVCTPQRPLCSQCPVESLCRARQRVEQEQLLASGSLSGSPDVEECAPNTGQCHLCLPPSEPWDQTLGVVNFPRKASRKPPREESSATCVLEQPGALGAQILLVQRPNSGLLAGLWEFPSVTWEPSEQLQRKALLQELQRWMGPLPATHLRHLGEVVHTFSHIKLTYQVYGLALEGQTPVTTVPPGARWLTQEEFHTAAVSTAMKKVFRVYQGQQPGTCMGSKRSQVSSPCSRKKPRMGQQVLDNFFRSHISTDAHSLNSAAQ [A400M],0.54
7,MRKPRAAVGSGHRKQAASQEGRQKHAKNNSQAKPSACDGLARQPEEVVLQASVSSYHLFRDVAEVTAFRGSLLSWYDQEKRDLPWRRRAEDEMDLDRRAYAVWVSEVMLQQTQVATVINYYTGWMQKWPTLQDLASASLEEVNQLWAGLGYYSRGRRLQEGARKVVEELGGHMPRTAETLQQLLPGVGRYTAGAIASIAFGQATGVVDGNVARVLCRVRAIGADPSSTLVSQQLWGLAQQLVDPARPGDFNQAAMELGATVCTPQRPLCSQCPVESLCRARQRVEQEQLLASGSLSGSPDVEECAPNTGQCHLCLPPSEPWDQTLGVVNFPRKASRKPPREESSATCVLEQPGALGAQILLVQRPNSGLLAGLWEFPSVTWEPSEQLQRKALLQELQRWKGPLPATHLRHLGEVVHTFSHIKLTYQVYGLALEGQTPVTTVPPGARWLTQEEFHTAAVSTAMKKVFRVYQGQQPGTCMGSKRSQVSSPCSRKKPRMGQQVLDNFFRSHISTDAHSLNSAAQ [A400K],-0.458
8,MRKPRAAVGSGHRKQAASQEGRQKHAKNNSQAKPSACDGLARQPEEVVLQASVSSYHLFRDVAEVTAFRGSLLSWYDQEKRDLPWRRRAEDEMDLDRRAYAVWVSEVMLQQTQVATVINYYTGWMQKWPTLQDLASASLEEVNQLWAGLGYYSRGRRLQEGARKVVEELGGHMPRTAETLQQLLPGVGRYTAGAIASIAFGQATGVVDGNVARVLCRVRAIGADPSSTLVSQQLWGLAQQLVDPARPGDFNQAAMELGATVCTPQRPLCSQCPVESLCRARQRVEQEQLLASGSLSGSPDVEECAPNTGQCHLCLPPSEPWDQTLGVVNFPRKASRKPPREESSATCVLEQPGALGAQILLVQRPNSGLLAGLWEFPSVTWEPSEQLQRKALLQELQRWIGPLPATHLRHLGEVVHTFSHIKLTYQVYGLALEGQTPVTTVPPGARWLTQEEFHTAAVSTAMKKVFRVYQGQQPGTCMGSKRSQVSSPCSRKKPRMGQQVLDNFFRSHISTDAHSLNSAAQ [A400I],-0.319
9,MRKPRAAVGSGHRKQAASQEGRQKHAKNNSQAKPSACDGLARQPEEVVLQASVSSYHLFRDVAEVTAFRGSLLSWYDQEKRDLPWRRRAEDEMDLDRRAYAVWVSEVMLQQTQVATVINYYTGWMQKWPTLQDLASASLEEVNQLWAGLGYYSRGRRLQEGARKVVEELGGHMPRTAETLQQLLPGVGRYTAGAIASIAFGQATGVVDGNVARVLCRVRAIGADPSSTLVSQQLWGLAQQLVDPARPGDFNQAAMELGATVCTPQRPLCSQCPVESLCRARQRVEQEQLLASGSLSGSPDVEECAPNTGQCHLCLPPSEPWDQTLGVVNFPRKASRKPPREESSATCVLEQPGALGAQILLVQRPNSGLLAGLWEFPSVTWEPSEQLQRKALLQELQRWEGPLPATHLRHLGEVVHTFSHIKLTYQVYGLALEGQTPVTTVPPGARWLTQEEFHTAAVSTAMKKVFRVYQGQQPGTCMGSKRSQVSSPCSRKKPRMGQQVLDNFFRSHISTDAHSLNSAAQ [A400E],-0.727
10,MRKPRAAVGSGHRKQAASQEGRQKHAKNNSQAKPSACDGLARQPEEVVLQASVSSYHLFRDVAEVTAFRGSLLSWYDQEKRDLPWRRRAEDEMDLDRRAYAVWVSEVMLQQTQVATVINYYTGWMQKWPTLQDLASASLEEVNQLWAGLGYYSRGRRLQEGARKVVEELGGHMPRTAETLQQLLPGVGRYTAGAIASIAFGQATGVVDGNVARVLCRVRAIGADPSSTLVSQQLWGLAQQLVDPARPGDFNQAAMELGATVCTPQRPLCSQCPVESLCRARQRVEQEQLLASGSLSGSPDVEECAPNTGQCHLCLPPSEPWDQTLGVVNFPRKASRKPPREESSATCVLEQPGALGAQILLVQRPNSGLLAGLWEFPSVTWEPSEQLQRKALLQELQRWFGPLPATHLRHLGEVVHTFSHIKLTYQVYGLALEGQTPVTTVPPGARWLTQEEFHTAAVSTAMKKVFRVYQGQQPGTCMGSKRSQVSSPCSRKKPRMGQQVLDNFFRSHISTDAHSLNSAAQ [A400F],0.262
11,MRKPRAAVGSGHRKQAASQEGRQKHAKNNSQAKPSACDGLARQPEEVVLQASVSSYHLFRDVAEVTAFRGSLLSWYDQEKRDLPWRRRAEDEMDLDRRAYAVWVSEVMLQQTQVATVINYYTGWMQKWPTLQDLASASLEEVNQLWAGLGYYSRGRRLQEGARKVVEELGGHMPRTAETLQQLLPGVGRYTAGAIASIAFGQATGVVDGNVARVLCRVRAIGADPSSTLVSQQLWGLAQQLVDPARPGDFNQAAMELGATVCTPQRPLCSQCPVESLCRARQRVEQEQLLASGSLSGSPDVEECAPNTGQCHLCLPPSEPWDQTLGVVNFPRKASRKPPREESSATCVLEQPGALGAQILLVQRPNSGLLAGLWEFPSVTWEPSEQLQRKALLQELQRWGGPLPATHLRHLGEVVHTFSHIKLTYQVYGLALEGQTPVTTVPPGARWLTQEEFHTAAVSTAMKKVFRVYQGQQPGTCMGSKRSQVSSPCSRKKPRMGQQVLDNFFRSHISTDAHSLNSAAQ [A400G],-0.0159
12,MRKPRAAVGSGHRKQAASQEGRQKHAKNNSQAKPSACDGLARQPEEVVLQASVSSYHLFRDVAEVTAFRGSLLSWYDQEKRDLPWRRRAEDEMDLDRRAYAVWVSEVMLQQTQVATVINYYTGWMQKWPTLQDLASASLEEVNQLWAGLGYYSRGRRLQEGARKVVEELGGHMPRTAETLQQLLPGVGRYTAGAIASIAFGQATGVVDGNVARVLCRVRAIGADPSSTLVSQQLWGLAQQLVDPARPGDFNQAAMELGATVCTPQRPLCSQCPVESLCRARQRVEQEQLLASGSLSGSPDVEECAPNTGQCHLCLPPSEPWDQTLGVVNFPRKASRKPPREESSATCVLEQPGALGAQILLVQRPNSGLLAGLWEFPSVTWEPSEQLQRKALLQELQRWNGPLPATHLRHLGEVVHTFSHIKLTYQVYGLALEGQTPVTTVPPGARWLTQEEFHTAAVSTAMKKVFRVYQGQQPGTCMGSKRSQVSSPCSRKKPRMGQQVLDNFFRSHISTDAHSLNSAAQ [A400N],-0.913
